The data set in a line: soluble on expression in E. coli; label from the status in PepcDB or PDB records.
In the case of “MIPQIQTLQRLMKATKAARHTKMVNNLDMPFLASRLFVVPHMLASTKLDIILNALAPRLFAGEKFPIEAYSQGNTEAFRPPETYVVQNNIAIIPVHGTLVRRSAWLGALSGLTSYEGLRASFREAIAQPDVNAVLLDIDSGGGEAGGIFDLVEEFQTLSKQYAKPIWAHANEFACSAAYAIACAASQIWIARTGVVGSIGVVCAHLDQSLADEKQGLKWTFVFEGDHKTHGNSHEPLSDTAQIKMQADCALLYEMFVDWVAKNRPLSADAIRDTKAETFIGIQALELGLADAQGTLAQALEALTDSISQTPTATKEGQNTWHAHNTAPKKMMMKKLSTSSTKTKRTKTRATLMKTSTKTKMRTKINRKA”, the “soluble on expression in E. coli” value is “not soluble”. Regarding “MSYGDGLSGAEYLASIYGTEKDKVNCSFFFKTGACRHGDKCSRAHHTPTFSPTVVLKNFYHNPVVDVRQADAFDKVGKRNDQEQRYFDDFYEEVFVEMERKYGEVEEINVCENIGEHMVGNVYVKFMKEEDAEKAKNDLNNRWFNGQPIYAELCPVTDFRESRCRQHEVTTCSKGGFCNFMHLKAISAELGDRLYGRRGRRADAAGHYPSQRGGSGGGGGGGGGGGYGSGGGWGGGGGGRDRDRGGWGGGGGGRGYGGGGGGGGYGYGGGGGGRRRSRSRDRRRY”, the “soluble on expression in E. coli” value is given as “not soluble”. In the case of “MSLAWLISEFASVGDVTVRALRYYDKINLLKPSDYTEGGHRLYTKDDLYVLQQIQSFKHLGFSLGEIQNIILQRDIETEVFLRQMHFQREVLLAEQERIAKVLSHMDEMTKKFQKEERVNVALFSSFLQTFIWEKENKEWLEEHFSTESIQAFYNNKELKEKFDRRFMDVIGKLKKYKEEEKDPSHHDVQVTLKEFFHLIEKITDYLDISQSEVVSVIKQSKISMAEFPTLFTNEEEQYIKEAMNKEGHHHHHH”, the “soluble on expression in E. coli” value is given as “soluble”. Take “MGSDKIHHHHHHMGFEMTRGHLTWNDFKIVMAIANAGSLSGAARSLGVNHATVFRRLGDIERRLGVALFERSRKGYKPSLAGEELANTARIMDEAAHSAERKVAGRDLRPSGEIWVTTTDSLLMGLLAPLFKEFRNRYPDIVLDVAVANEMLNLTRREADVGIRPVNRPPENLIGRRLATVGQAIFGHRNLGLDKGQSIDFLSQQPWIGAGPRLQDSVLEQWMAQKNLADACVFRVDTLVGLLSAVNEGLGLAALPCYLAETCPDIVQLSDPIPELNYDLRKPLKVATHST”: the “soluble on expression in E. coli” value is on record as “not soluble”. In the case of “KAAPEDVRMIMIDPKMLELSIYEGIPHLLAPVVTDMKLAANALNWCVNEMEKRYRLMSFMGVRNLAGFNQKIAEAAARGEKIGNPFSLTPDDPEPLEKLPFIVVVVDEFADLMMTAGKKIEELIARLAQKARAAGIHLILATQRPSVDVITGLIKANIPTRIAFQVSSKIDSRTILDQMGAENLLGQGDMLFLLPGTAYPQRVHGAFASDEEVHRVVEYLKQFGEPDYVDDILSGGGSEELPGIGRSGDDETDPMYDEAVSVVLKTRKASISGVQRALRIGYNRAARLIDQMEAEGIVSAPEHNGNRTILVPLDNA”, the “soluble on expression in E. coli” value is listed as “not soluble”. Turning to “MTVQTKTKGLAWQEKPLSDNERLKTESNFLRGTILDDLKDPLTGGFKGDNFQLIRFHGMYEQDDRDIRAERAEAKLEPLKFM”, the “soluble on expression in E. coli” value is “not soluble”. The entry for “MGHHHHHHSHMNDSDSTPPKKKMRKTENGMYACDLCDKIFQKSSSLLRHKYEHTGKRPHECGICKKAFKHKHHLIEHMRLHSGEKPYQCDKCGKRFSHSGSYSQHMNHRYSYCKREAEERDSTEQEEAGPEILSNEHVGARASP” is “soluble”; for “DVQLQESGPGLVKPSQSLSLTCTVTGYSITSLYAWNWIRQFPGNKLEWMGYINYSGYTSYNPSLKSRISITRDTSKNQFFLQLHSVTTEDTATYSCTRGVDYFAMDYWGQGASVTVSSAKTTAPSVYPLAPVCGDTTGSSVTLGCLVKGYFPEPVTLTWNSGSLSSGVHTFPALLQSDLYTLSSSVTVTSNTWPSQSITCNVAHPASSTKVDKKIVPRD” it is “soluble”. “MGSDKIHHHHHHMLDFNHQPSIAERINALIDSGLIADRDATPPRAYLGGSRLGHSCERALQFEFAGAPKDSGADFNGQTLRIFAIGHALEDVAIRWLRRAGFDIYTRKGNRPDGEQFGFSVAGGQVRGHVDGILADGPVIPGMGYPALWECKTMNAKNWRETVAKGVTVSKPVYAAQIALYQAYMEGTVPGISANPALFTAINKDTAELHHELVSFDGELAQRISDRAVRILQATDAGELLPRMSSDPDYFECRFCPWKTRCWA”: the “soluble on expression in E. coli” value was “not soluble”.

In the case of “MQNRLRSALALVTGAGSGIGRAVSVRLAGEGATVAACDLDRAAAQETVRLLGGPGSKEGPPRGNHAAFQADVSEARAARCLLEQVQACFSRPPSVVVSCAGITQDEFLLHMSEDDWDKVIAVNLKGTFLVTQAAAQALVSNGCRGSIINISSIVGKVGNVGQTNYAASKAGVIGLTQTAARELGRHGIRCNSVLPGFIATPMTQKVPQKVVDKITEMIPMGHLGDPEDVADVVAFLASEDSGYITGTSVEVTGGLFMAENLYFQ”, the “soluble on expression in E. coli” value is reported as “soluble”. Turning to “MIFAAIADIHGNCAALEAVLEDIAKLGIKDIVNLGDCFSGPLEAGFTGDVLVGNWIPSIRGNHDRELIERAPENMGSWEKPAHAQLTAAHLDWLHTLPFSMVFRDVAYCCHGSPLGDLDYWLETLSPEGVLKLRPLAEIEERAEGITQPLMLCGHTHIPRAVQLSDGRLIVNPGSVGCPGWKDDTPFDHHVEAGHALATYAVLEETGRGWQVYFRNIRYDNLAMSEMARVNGIPYLADALTNGWLKR”, the “soluble on expression in E. coli” value is “not soluble”. With “GPGSMTAAVDLEGVALHGHMKGVTMLKFNRDGDLLFSSAKDTNCSACCWQVKTGKLFGSYTTVGQVEGRTYDAAMVALDVNRESTLLATASAGEEVLLWSVESGALLGSVSRSLSSGASVGFSHDDTLMMVATKGRSSTNSAIQVYNVPFTVPKAGEDIAPVKTPFTTFSTFETPDTITWAAWGPTNETIYYSEGGYMNILDVEANKVIRSRQIHEDENEVINRFSWDPNYLALATASTDKTSHLIDFRDLATIQVYRSDVPVNDVSISPNADHVILGGGMDAASVTTQGGQSIFEVKFFHKVHGHQLGQLRCHFGTINAMSFHPDGRGFASASYDGLIKMYRFGDSYDSTPGAQPLWTL”, the “soluble on expression in E. coli” value is given as “not soluble”. Regarding “MGSDKIHHHHHHMKILVAMSGGVDSTVTAYKLKNLGHEVIGCYMKLHGKPNYHEENIKKVEKVANFLQIPYHILDLQEDFKNKVYMPFVDTYKEGKTPNPCALCNRFIKLGKLLEFAKSLGCEKLATGHYARLENNLIKTAVDESKDQSYFLASADKEALKYLIFPLGEMKKEDVKKFASTIEVLKSFATQKESSEICFVEDTYVQVLDQFMDTKIPGEVLDSSGKVVGKHEGYMHYTIGKRRGFEVRGAHEPHFVLKINPKQNQIIVGTKEELKISEFNLKNINLFIDAKELDCEVKIRYRSKSTPCKVEIYEDKSAKIILKDPVYGLASGQMAVFYDHDKVIASGFIE”, the “soluble on expression in E. coli” value is listed as “not soluble”. Consider “GVSETAPASRRGELAVCDAVSGWVTDRRTAVDLRGREVEVLGEVPAAGGSPLRQYFFETRCKADNAEEGGPGAGGGGCRGVDRRHWVSECKAKQSYVRALTADAQGRVGWRWIRIDTACVCTLLSRTGRA”, for which the “soluble on expression in E. coli” value is given as “soluble”. Consider “SHMAGLEVLFASAAPAITCRQDALVCFLHWEVVTHGYCGLGVGDQPGPNDKKSELLPAGWNNNKDLYVLRYEYKDGSRKLLVKAITVESSMILNVLEYGSQQVADLTLNLDDYIDAEHLGDFHRTYKNSEELRSRIVSGIITPIHEQWEKANV”, for which the “soluble on expression in E. coli” value was “soluble”. As to “MLNVEPSFAEELRSSGVSLSATYLGSVPVVESINVMVSEMRVQVVSECIQHVAATVGVTAAREINPVVSRVIGEVKKENFPVDINISSKMIKIIKQSRLIQRHPFSFFSFGAQGQKGTDTELMFGYIAKNKDGTDRRCHVVFIEDVHKLIDVLTTAINVNTFDAQANASTSNDGFTVPAPPMRHRSSLHRQSFVSNCRAPTVTEDVVGKVWYHGNLSREDAQALLKTEGDFLVRQSDHTPGKYVLSGRTAENEHKHLILLDNHNRVRTRDRTFSNISELIDYHVNNGMAVRSEGRDRETSLNLIRPVPCPGSDDIE”, the “soluble on expression in E. coli” value is “soluble”.

The record behind these values is the DeepSol protein solubility set.
